Laboratory results from patent US20180298070A1, “PEPTIDE COMPOUND” (Takeda Pharmaceutical Company Limited, published 2018).
Starred links: 1 amine or outer side, 2 acyl side, 3 side chain; linkers in the order of their positions; H or OH if unused. Non-standard residues stand in square brackets, D forms with d. Groups on a side chain read outwards from the residue. Primed or numbered codes have the meaning given here. No end group written: not given here. *: point of attachment. C20 diacid = O=C(O)CCCCCCCCCCCCCCCCCCC(=O)*; γGlu = O=C(O)[C@H](CCC(=O)[*:2])N[*:1]; NMeY = CN[C@@H](Cc1ccc(O)cc1)C(=O)O; αMeF = C[C@](N)(Cc1ccccc1)C(=O)O; Lauroyl = CCCCCCCCCCCC(=O)*; dIva = CC[C@@](C)(N)C(=O)O; Iva = CC[C@](C)(N)C(=O)O; PEG2′ = not defined here; PEG3′ = not defined here; Aib = CC(C)(N)C(=O)O

T1: human GIPR (human), P48546
T1 chain: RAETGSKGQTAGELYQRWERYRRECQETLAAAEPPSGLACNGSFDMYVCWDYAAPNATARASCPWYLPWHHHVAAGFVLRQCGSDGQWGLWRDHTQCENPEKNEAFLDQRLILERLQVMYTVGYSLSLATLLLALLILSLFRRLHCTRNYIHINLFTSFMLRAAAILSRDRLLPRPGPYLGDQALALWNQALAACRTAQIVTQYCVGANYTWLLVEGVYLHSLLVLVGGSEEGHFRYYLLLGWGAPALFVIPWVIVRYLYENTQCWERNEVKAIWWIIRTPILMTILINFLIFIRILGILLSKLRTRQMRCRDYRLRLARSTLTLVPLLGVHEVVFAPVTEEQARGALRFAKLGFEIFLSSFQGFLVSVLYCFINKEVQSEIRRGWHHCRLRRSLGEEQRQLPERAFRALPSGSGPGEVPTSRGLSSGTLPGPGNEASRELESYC

T2: human GLP-1R (human), P43220
T2 chain: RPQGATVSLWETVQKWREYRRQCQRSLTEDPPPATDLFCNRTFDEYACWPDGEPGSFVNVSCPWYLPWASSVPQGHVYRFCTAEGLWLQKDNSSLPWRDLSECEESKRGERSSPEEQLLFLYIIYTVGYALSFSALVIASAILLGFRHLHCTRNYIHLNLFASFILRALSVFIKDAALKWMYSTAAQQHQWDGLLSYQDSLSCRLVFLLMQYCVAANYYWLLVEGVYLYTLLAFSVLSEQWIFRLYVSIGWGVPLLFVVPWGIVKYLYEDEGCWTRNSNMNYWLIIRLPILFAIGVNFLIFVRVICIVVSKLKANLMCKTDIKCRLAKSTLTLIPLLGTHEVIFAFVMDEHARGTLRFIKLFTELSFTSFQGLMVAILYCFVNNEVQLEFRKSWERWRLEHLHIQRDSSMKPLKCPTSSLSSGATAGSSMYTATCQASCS

B1: Compound 232 (peptide)
peptide: Y[Aib]EGTFISDYSIALDRK([PEG(2)-dodec])HQQDFVNWLLAQRPSSGAPPPS
modifications: not fully specified (C-terminus); ends and bridges not checked
B2: Compound 68 (peptide)
peptide: [NMeY][Aib]EGTFISDYSIALDRIAQ[Aib]NFVNW[Iva]LAQRPSSGAPPPSR
modifications: not fully specified (C-terminus); ends and bridges not checked
B3: Compound 72 (peptide)
peptide: [NMeY][Aib]EGTFISDYSIALDRIAQ[Aib]N[αMeF]VNWLLAQRPSSGAPPPSR
modifications: not fully specified (C-terminus); ends and bridges not checked
B4: Compound 240 (peptide)
peptide: Y[Aib]EGTFISDYSIALDRK([PEG(2)-Pal])HQ[Aib]NFVNW[Iva]LAQRPSSGAPPPS
modifications: not fully specified (C-terminus); ends and bridges not checked
B5: Compound 79 (peptide)
peptide: [NMeY][Aib]EGTFISDYSI[dIva]LDR[Aib]AQQDFVNWLLAQRPSSGAPPPSR
modifications: ends and bridges not checked
B6: Compound 238 (peptide)
peptide: Y[Aib]EGTFISDYSK([PEG3′-PEG3′-γGlu-C20 diacid])ALDRIHQQDFVNWLLAQRPSSGAPPPS
modifications: not fully specified (C-terminus); ends and bridges not checked
B7: Compound 237 (peptide)
peptide: Y[Aib]EGTFISDYSIALDRK([PEG3′-PEG3′-γGlu-C20 diacid])HQQDFVNWLLAQRPSSGAPPPS
modifications: not fully specified (C-terminus); ends and bridges not checked
B8: Compound 71 (peptide)
peptide: [NMeY][Aib]EGTFISDYSIALDRIAQQS[αMeF]VNWLLAQRPSSGAPPPSR
modifications: not fully specified (C-terminus); ends and bridges not checked
B9: Compound 473 (peptide)
peptide: YXEGTXISDYSIXXDRXAQXNFVNWXLAQRPSSGAPPPSR
modifications: N-methyl on Tyr1 (Me-Tyr); Aib at 2, 13, 17, 20; Iva at 6, 26; Lys(Eda-GGGGG-) at 14; C-terminal NH2
B10: Compound 479 (peptide)
peptide: YXEGTXISDYSIXXDRXAQXNFVNWXLAQRPSSGAPPPSR
modifications: N-methyl on Tyr1 (Me-Tyr); Aib at 2, 13, 17, 20; Iva at 6, 26; Lys(Oda-GGGGGG-) at 14; C-terminal NH2
B11: Compound 223 (peptide)
peptide: Y[Aib]EGTFISDYSK([PEG(2)-Lauroyl])ALDRIHQQS[αMeF]VNW[Iva]LAQRPSSGAPPPS
modifications: not fully specified (C-terminus); ends and bridges not checked
B12: Compound 415 (peptide)
peptide: YXEGTXISDYSIXXDRXAQXNFVNWXLAQR
modifications: N-methyl on Tyr1 (MeTyr); Aib at 2, 13, 17, 20; Iva at 6, 26; Lys(Oda-GGGGG-) at 14; C-terminal NH2
B13: Compound 435 (peptide)
peptide: YXEGTXISDYSIXXDRXAQXNFVNWXLAQRPSSGAPPPS
modifications: N-terminal acetyl (Ac-Tyr); Aib at 2, 13, 17, 20; Iva at 6, 26; Lys(Eda-GGGGG-) at 14; C-terminal NH2
B14: Compound 491 (peptide)
peptide: YXEGTXISDYSIXLDRXHQXNFVNWXLAQRPSSGAPPPS
modifications: N-methyl on Tyr1 (Me-Tyr); Aib at 2, 13, 20; Iva at 6, 26; Lys(Oda-GGGGG-) at 17; C-terminal NH2
B15: Compound 465 (peptide)
peptide: YXEGTXISDYSIXXDRXAQXNFVNWXLAQRPSSGAPPPS
modifications: N-methyl on Tyr1 (Me-Tyr); Aib at 2, 13, 17, 20; Iva at 6, 26; Lys(Hepda-GGGGG-) at 14; C-terminal NH2
B16: Compound 484 (peptide)
peptide: YXEGTXISDYSIXXDRXHQXNFVNWXLAQRPSSGAPPPS
modifications: N-methyl on Tyr1 (Me-Tyr); Aib at 2, 13, 17, 20; Iva at 6, 26; Lys(Oda-GGGGGG-) at 14; C-terminal NH2
B17: Compound 457 (peptide)
peptide: YXEGTXISDYSIXXDRXAQXNFVNWXLAQRPSSGAPPPS
modifications: N-methyl on Tyr1 (Me-Tyr); Aib at 2, 13, 17, 20; Iva at 6, 26; Lys(Heda-GGGGGG-) at 14; C-terminal NH2
B18: Compound 441 (peptide)
peptide: YXEGTXISDYSIXXDRXAQXNFVNWXLAQRPSSGAPPPS
modifications: not fully specified; N-methyl on Tyr1 (MeTyr); Aib at 2, 13, 17, 20; Iva at 6, 26; Lys(Oda-GGGGG-) at 14; C-terminal OH
B19: Compound 445 (peptide)
peptide: YXEGTXISDYSIXXDRXAQXNFVNWXLAQRPSSGAPPPS
modifications: N-methyl on Tyr1 (Me-Tyr); Aib at 2, 13, 17, 20; Iva at 6, 26; Lys(Heda-GGGGG-) at 14; C-terminal NH2
B20: Compound 459 (peptide)
peptide: YXEGTXISDYSIXXDRXAQXNFVNWXLAQRPSSGAPPPS
modifications: N-methyl on Tyr1 (Me-Tyr); Aib at 2, 13, 17, 20; Iva at 6, 26; Lys(Hda-GGGGG-) at 14; C-terminal NH2
B21: Compound 439 (peptide)
peptide: YXEGTXISDYSIXXDRXAQXNFVNWXLAQRPSSGAPPPS
modifications: N-methyl on Tyr1 (Me-Tyr); Aib at 2, 13, 17, 20; Iva at 6, 26; Lys(Oda-GGGGGG-) at 14; C-terminal NH2
B22: Compound 466 (peptide)
peptide: YXEGTXISDYSIXXDRXAQXNFVNWXLAQRPSSGAPPPS
modifications: N-methyl on Tyr1 (Me-Tyr); Aib at 2, 13, 17, 20; Iva at 6, 26; Lys(Hepda-GGGGGG-) at 14; C-terminal NH2
B23: Compound 475 (peptide)
peptide: YXEGTXISDYSIXXDRXHQXNFVNWXLAQRPSSGAPPPS
modifications: N-methyl on Tyr1 (Me-Tyr); Aib at 2, 13, 17, 20; Iva at 6, 26; Lys(Eda-GGGGG-) at 14; C-terminal NH2
B24: Compound 221 (peptide)
peptide: Y[Aib]EGTFISDYSK([PEG2′-Lauroyl])ALDRIAQQS[αMeF]VNW[Iva]LAQRPSSGAPPPS
modifications: not fully specified (C-terminus); ends and bridges not checked
B25: Compound 92 (peptide)
peptide: [NMeY][Aib]EGTFISDYSI[dIva]LDRIAQ[Aib]NFVNW[Iva]LAQRPSSGAPPPSR
modifications: ends and bridges not checked
B26: Compound 222 (peptide)
peptide: Y[Aib]EGTFISDYSK([PEG(2)-Lauroyl])ALDRIHQQSFVNW[Iva]LAQRPSSGAPPPS
modifications: not fully specified (C-terminus); ends and bridges not checked
B27: Compound 234 (peptide)
peptide: Y[Aib]EGTFISDYSIALDRK([PEG(2)-C20 diacid])HQQDFVNWLLAQRPSSGAPPPS
modifications: not fully specified (C-terminus); ends and bridges not checked

Legend:
[1] = target: T1, human GIPR (human), P48546
[2] = target: T2, human GLP-1R (human), P43220
[3] = target: T1, human GIPR (human), P48546; assay: [125I]GIP displacement, hGIPR VLP
[4] = target: human GLP-1R (human, UniProt P43220); assay: cell-based or functional assay

Binder | Agonist activity (EC50, M) [1] | Agonist activity (EC50, M) [2] | IC50 [3] | Agonist activity (EC50, M) [4]
B1 | 3.2e-12 M | > 1e-06 M | 2.1 nM | 
B2 | 1.7e-12 M | 3.5e-07 M | 2.4 nM | 
B3 | 2.6e-12 M | 2.3e-07 M | 2.7 nM | 
B4 | 3e-12 M | 5.8e-09 M | 2.4 nM | 
B5 | 1.1e-12 M | > 1e-06 M | 1.2 nM | 
B6 | 8.3e-11 M | > 1e-06 M | 43 nM | 
B7 | 1.6e-10 M | > 1e-06 M | 110 nM | 
B8 | 2.5e-12 M | > 1e-06 M | 2.1 nM | 
B9 |  |  |  | > 1e-06 M
B10 |  |  |  | > 1e-06 M
B11 | 5.1e-12 M | > 1e-06 M | 3 nM | 
B12 |  |  |  | > 1e-06 M
B13 |  |  |  | > 1e-06 M
B14 |  |  |  | > 1e-06 M
B15 |  |  |  | > 1e-06 M
B16 |  |  |  | > 1e-06 M
B17 |  |  |  | > 1e-06 M
B18 |  |  |  | > 1e-06 M
B19 |  |  |  | > 1e-06 M
B20 |  |  |  | > 1e-06 M
B21 |  |  |  | > 1e-06 M
B22 |  |  |  | > 1e-06 M
B23 |  |  |  | > 1e-06 M
B24 | 7.1e-12 M | > 1e-06 M | 3 nM | 
B25 | 1.3e-12 M | > 1e-06 M | 2.3 nM | 
B26 | 3.7e-12 M | > 1e-06 M | 2.9 nM | 
B27 | 1.5e-10 M | > 1e-06 M | 82 nM | 
